The values below come from patent US20250041339A1 (University of Pennsylvania, published 2025).

Assay [1] has as its target T1, tCD45RO_WT (truncated, N-terminally myc-tagged wild-type CD45RO construct) (human, UniProt P08575 1-604).
T1 construct: Expressed from lentivirus on CD45-negative NALM6 cells; also called WT CD45; CD45 WT
T1 sequence: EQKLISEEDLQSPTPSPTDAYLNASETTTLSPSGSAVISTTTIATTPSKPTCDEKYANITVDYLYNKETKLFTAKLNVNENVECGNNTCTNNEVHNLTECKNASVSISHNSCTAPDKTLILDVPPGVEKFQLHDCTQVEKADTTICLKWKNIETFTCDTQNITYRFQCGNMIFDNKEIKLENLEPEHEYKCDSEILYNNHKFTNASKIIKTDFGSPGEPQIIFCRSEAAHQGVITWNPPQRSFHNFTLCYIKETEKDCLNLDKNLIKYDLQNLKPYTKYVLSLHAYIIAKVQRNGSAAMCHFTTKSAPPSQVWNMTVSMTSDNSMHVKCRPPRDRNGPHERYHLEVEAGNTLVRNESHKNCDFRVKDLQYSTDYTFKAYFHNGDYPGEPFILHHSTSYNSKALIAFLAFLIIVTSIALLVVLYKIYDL
Briefly: staining of cells expressing truncated CD45 constructs with his-tagged scFv/antibody clones. From the text: (§1) With the information obtained from the crystal structure (and given that FN domains are evolutionary conserved and stable structures), and without wishing to be bound by theory, it was hypothesized that the subdomains which are recognized by the CAR45-T cells can be narrowed down by sequentially truncating the extracellular domain. The constructs to generate the truncated CD45 constructs were de novo synthesized (FIG. 24A). To verify surface expression of the truncated CD45 constructs, all constructs were myc-tagged at the N-terminus to allow surface staining against the truncated CD45 expressing cell using anti-Myc antibodies followed by readout via flowcytometry. Cells expressing the truncated CD45 constructs were stained with recombinantly expressed, his-tagged scFv/antibody clones from which the CARs were made off. Positive staining for the his tag therefore only occurs when the scFv/antibody clones can bind truncated CD45.

Assay [2] addresses T2, tCD45_RO_T8A (CD45RO with Thr8 changed to alanine) (human, UniProt P08575 1-604).
T2 construct: The entry already carries the substitution, the signal peptide and the myc tag
T2 sequence: T1 sequence with T18A
Description: antibody staining (figure cited in the text as FIG. 42, left).

In assay [3] the target is T1, tCD45RO_WT (truncated, N-terminally …). Description: flow cytometry, his-tag staining of cells expressing myc-tagged truncated CD45 constructs.
Source text: as §1
A general note: In flow cytometry, cells or beads pass a laser one at a time.

Substitutions are numbered along the chain they refer to.

B1: recombinantly expressed, his-tagged scFv/antibody clone 9.4 (scFv, V domains shown)
VH: QVQLQQLGAELARPGASVKMSCKASGYTFTSYSIQWVKQRPGQGLEWIGYINPSSGYIKYNQHFRDRATLTADRSSSTAYMQLSSLTSEDSAVYYCARGNSGSFDYWGQGTTLTVSS
VL: DIVMTQAAPSVPVTPGESLSISCRSSKSLLHSSGITYLYWFLQRPGQSPQLLIYRMSNLASGVPDRFSGSGSGTAFTLRISRVEAEDVGVYYCMQHLEYPFTFGGGTKLEIK
notes: Soluble his-tagged scFv/antibody clone used to stain cells expressing truncated CD45; also called 9.4 scFv
On to B1, for which, in assay [1], the binding result is listed as “binds”.

B2: recombinantly expressed, his-tagged scFv/antibody clone 4B2 (scFv, V domains shown)
VH: GVQLQESGAELARPGASVKMSCKASGYTFTSYTMQWVKQRPGQGLEWIGYINPSSGYIKYNQKFKDKVTLTADKSSTTAYMQLSRLTSEDSAVYYCARRGSYFFDFWGQGTSVTVSS
VL: DIVITQDELSNPVTSGESVSISCRSSKSLLYKDGKTYLNWFLQRPGQSPQLLIYLMSTRASGVSDRFSGSGSGTDFTLEISRVKAEDVGVYYCQQLVEYPFTFGGGTKLEVK
notes: Soluble his-tagged scFv/antibody clone used to stain cells expressing truncated CD45; also called 4B2 scFv
For the molecule B2, in assay [1], the binding result is “binds”.

B3: recombinantly expressed, his-tagged scFv/antibody clone Gap8.3 (scFv, V domains shown)
VH: EVQLQQSGPELVKTGASVKISCKASGYSFTGYFIHWVKQSHGKSLEWIGYISCYNGATSYNQKFKGKATFTVDTSSSTAYMQFNSVTSEDSAVYYCVRNYYGNLDAMDYWGQGTSVTVSS
VL: DIVMTQSHKFMSTSVGDRVSITCKASQDVSTAVAWYQQKPGQSPKILIYSASYRYTGVPDRFTGSGSGTDFTFTISSVQAEDLAVYYCQQHYSTPRTFGGGTKLEIK
notes: Soluble his-tagged scFv/antibody clone used to stain cells expressing truncated CD45; also called Gap8.3 scFv
In the case of B3, in assay [1], the binding result was “binds”.

B4: antibody clone UCHL-1 (CD45RO-specific) (antibody, V domains shown)
VH: QITLKESGPGILQPSQTLSLTCSFSGFSLTTYGIGVGWIRQPPGKGLEWLTHIWWNDNKYYNTALRSRLTISKDSSNNQVLLKIANVDTADTATYYCLYGYTYWGQGTLVTVSA
VL: DVVMTQTPLSLPVSLGDQASISCRSSQSLLYSNGNTYLHWYLQKPGQSPKLLIYKLSNRFSGVPDRFSGSGSGTDFTLKISRVEAEDLGVYFCSQSTHVPWTFGGGTKLEIK
notes: also called muUCHL
As to B4, in assay [2], the binding result is on record as “no binding”.

B5: recombinantly expressed, his-tagged scFv from the BC8 clone (scFv, V domains shown)
VH: QVQLVESGGGLVQPGGSLKLSCAASGFDFSRYWMSWVRQAPGKGLEWIGEINPTSSTINFTPSLKDKVFISRDNAKNTLYLQMSKVRSEDTALYYCARGNYYRYGDAMDYWGQGTSVTVS
VL: DIVLTQSPASLAVSLGQRATISCRASKSVSTSGYSYLHWYQQKPGQPPKLLIYLASNLESGVPARFSGSGSGTDFTLNIHPVEEEDAATYYCQHSRELPFTFGSGTKLEIK
notes: Soluble his-tagged scFv used to stain cells; also called BC8 scFv
Turning to B5, the binding result in assay [3] is reported as “binds”.
